Substitutions are numbered along the chain they refer to. Names may count otherwise.
B1: FKBP-133: FKBP13 DRD Q72R, Q84E, A117W, G83T; SEQ ID NO: 83 (protein)
chain: HCPIKSRKGDVLHMHYTGKLEDGTEFDSSLPRNQPFVFSLGTTEVIKGWDQGLLGMCEGEKRKLVIPSELGYGERGWPPKIPGGATLVFEVELLKIER
modifications: Description of sequence: FKBP13-AcGFP-mCherry Fusion; Construct Name: FKBP-133; FKBP13 DRD in Construct : FKBP13 (mutated to match FKBP12 active site Q72R Q84E A117W) (DRD G83T)
B2: FKBP-140: FKBP13 DRD Q72R, Q84E, A117W, K135Y; SEQ ID NO: 90 (protein)
chain: B1 chain with T43G, K95Y
modifications: Description of sequence: FKBP13-AcGFP-mCherry Fusion; Construct Name: FKBP-140; FKBP13 DRD in Construct : FKBP13 (mutated to match FKBP12 active site Q72R Q84E A117W) (DRD K135Y)
B3: FKBP-137: FKBP13 DRD Q72R, Q84E, A117W, P75L; SEQ ID NO: 87 (protein)
chain: B1 chain with P35L, T43G
modifications: Description of sequence: FKBP13-AcGFP-mCherry Fusion; Construct Name: FKBP-137; FKBP13 DRD in Construct : FKBP13 (mutated to match FKBP12 active site Q72R Q84E A117W) (DRD P75L)
B4: FKBP-138: FKBP13 DRD Q72R, Q84E, A117W, G124R; SEQ ID NO: 88 (protein)
chain: B1 chain with T43G, G84R
modifications: Description of sequence: FKBP13-AcGFP-mCherry Fusion; Construct Name: FKBP-138; FKBP13 DRD in Construct : FKBP13 (mutated to match FKBP12 active site Q72R Q84E A117W) (DRD G124R)
B5: FKBP-142: FKBP13 DRD Q72R, Q84E, A117W, T64G; SEQ ID NO: 92 (protein)
chain: B1 chain with T24G, T43G
modifications: Description of sequence: FKBP13-AcGFP-mCherry Fusion; Construct Name: FKBP-142; FKBP13 DRD in Construct : FKBP13 (mutated to match FKBP12 active site Q72R Q84E A117W) (DRD T64G)
B6: FKBP-134: FKBP13 DRD Q72R, Q84E, A117W, H41R; SEQ ID NO: 84 (protein)
chain: B1 chain with H1R, T43G
modifications: Description of sequence: FKBP13-AcGFP-mCherry Fusion; Construct Name: FKBP-134; FKBP13 DRD in Construct : FKBP13 (mutated to match FKBP12 active site Q72R Q84E A117W) (DRD H41R)
B7: FKBP-141: FKBP13 DRD Q72R, Q84E, A117R, L52R; SEQ ID NO: 91 (protein)
chain: B1 chain with L12R, T43G, W77R
modifications: Description of sequence: FKBP13-AcGFP-mCherry Fusion; Construct Name: FKBP-141; FKBP13 DRD in Construct : FKBP13 (mutated to match FKBP12 active site Q72R Q84E A117R (DRD L52R))
B8: FKBP-139: FKBP13 DRD Q72R, Q84E, A117W, E130R; SEQ ID NO: 89 (protein)
chain: B1 chain with T43G, E90R
modifications: Description of sequence: FKBP13-AcGFP-mCherry Fusion; Construct Name: FKBP-139; FKBP13 DRD in Construct : FKBP13 (mutated to match FKBP12 active site Q72R Q84E A117W) (DRD E130R)
B9: FKBP-144: FKBP13 DRD Q72R, Q84E, A117H, D50R, E98M; SEQ ID NO: 94 (protein)
chain: B1 chain with D10R, T43G, E58M, W77H
modifications: Description of sequence: FKBP13-AcGFP-mCherry Fusion; Construct Name: FKBP-144; FKBP13 DRD in Construct : FKBP13 (mutated to match FKBP12 active site Q72R Q84E A117H) (DRD D50R E98M)
B10: FKBP-135: FKBP13 DRD Q72R, Q84E, A117W, E61Y; SEQ ID NO: 85 (protein)
chain: B1 chain with E21Y, T43G
modifications: Description of sequence: FKBP13-AcGFP-mCherry Fusion; Construct Name: FKBP-135; FKBP13 DRD in Construct : FKBP13 (mutated to match FKBP12 active site Q72R Q84E A117W) (DRD E61Y)
B11: FKBP-136: FKBP13 DRD Q72R, Q84E, A117W, S108M; SEQ ID NO: 86 (protein)
chain: B1 chain with T43G, S68M
modifications: Description of sequence: FKBP13-AcGFP-mCherry Fusion; Construct Name: FKBP-136; FKBP13 DRD in Construct : FKBP13 (mutated to match FKBP12 active site Q72R Q84E A117W) (DRD S108M)
B12: FKBP-143: FKBP13 DRD Q72R, Q84G, A117H, P43R; SEQ ID NO: 93 (protein)
chain: B1 chain with P3R, T43G, E44G, W77H
modifications: Description of sequence: FKBP13-AcGFP-mCherry Fusion; Construct Name: FKBP-143; FKBP13 DRD in Construct : FKBP13 (mutated to match FKBP12 active site Q72R Q84G A117H) (DRD P43R)
B13: FKBP-145: FKBP13 DRD Q72R, Q84E, A117H, H41S, E61D; SEQ ID NO: 95 (protein)
chain: B1 chain with H1S, E21D, T43G, W77H
modifications: Description of sequence: FKBP13-AcGFP-mCherry Fusion; Construct Name: FKBP-145; FKBP13 DRD in Construct : FKBP13 (mutated to match FKBP12 active site Q72R Q84E A117H) (DRD H41S E61D)

System: Jurkat cells
Experiment: Tacrolimus dose response of FKBP13-AcGFP-mCherry constructs stably transduced into Jurkat cells, GFP MFI by flow cytometry
Assay type: cell-based
Conditions: tacrolimus, Jurkat cells stably transduced; Table 6
Method: The regulation of AcGFP, from FKBP13-AcGFP-mCherry constructs, in Jurkat cells, was also studied. Jurkat Clone E6-1 cells were cultured in standard media (RPMI+GlutaMAX Supplement (Life Technologies, Carlsbad, CA Cat #61870127), Fetal Bovine Serum (FBS) (Life Technologies Cat #10-082-147)). Jurkat cells were transduced with lentivirus produced with each of FKBP-039, FKBP-040, FKBP-041, FKBP-042, FKBP-043, FKBP-044, or FKBP-045 constructs. Jurkat cells were transduced until they were 10-25% positive, as determined on day 5 post-transduction, by using mCherry as a transduction marker. […] The Geometric Mean Fluorescent Intensity (MFI) of GFP expression in mCherry+ cells was plotted and dose response curve fits were performed using Prism Software (San Diego, CA).
FKBP-091 was used as a comparative construct.
FIGS. 22-38 show the results of characterization of FKBP-160-292. […] FKBP-091 and FKBP-117 was used as a comparative control for FKBP-160-FKBP-255. FKBP-195 was used as a comparative control for FKBP-256-FKBP-275. FKBP-117, FPBP-195 and FKBP-251 were used as a comparative control for FKBP-276-FKBP-292.
FKBP mutants were cloned in a manner to make a fusion protein with AcGFP in order to assess FKBP mutant regulation by using AcGFP expression as a readout. […] Further iterative FKBP mutants (FKBP-256-FKBP-292) were constructed from these initial combinatorial mutants to see if we could further improve FKBP DRD properties.

| Molecule | Fold Change |
| --- | --- |
| B1 | 19.11 |
| B2 | 28.70 |
| B3 | 45.79 |
| B4 | 10.43 |
| B5 | 33.42 |
| B6 | 15.64 |
| B7 | 1.00 |
| B8 | 52.24 |
| B9 | 1.24 |
| B10 | 25.52 |
| B11 | 22.46 |
| B12 | 14.97 |
| B13 | 11.05 |
